According to US20220281976A1 (Alector, published 2022):

T1: mouse CD33 Fc fusion protein (mouse, UniProt Q63994 18-240, limits assumed)
T1 construct: also called mCD33-Fc
T1 sequence: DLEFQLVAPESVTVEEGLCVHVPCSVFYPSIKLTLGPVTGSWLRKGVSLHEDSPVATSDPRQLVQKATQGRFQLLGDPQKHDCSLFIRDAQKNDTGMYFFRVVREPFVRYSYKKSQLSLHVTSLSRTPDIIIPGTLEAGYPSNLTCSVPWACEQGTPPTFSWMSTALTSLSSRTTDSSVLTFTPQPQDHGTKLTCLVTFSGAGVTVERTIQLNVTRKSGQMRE

B1: C-70 (antibody, V domains shown)
VH: QVQLVESGGGVVQPGRSLRLSCAASGFTFSTYGMHWVRQAPGKGLEWVAVIWYDGSNKYYADSVKGRFTISRDNSKNTLYLQMNSLRAEDTAVYYCARGQHGTSRVDFDYWGQGTLVTVSS
VL: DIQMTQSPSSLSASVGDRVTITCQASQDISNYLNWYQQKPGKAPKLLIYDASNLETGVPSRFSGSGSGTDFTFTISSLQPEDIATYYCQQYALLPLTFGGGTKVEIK
notes: human IgG1
B2: C-13 (antibody, V domains shown)
VH: EVQLVESGGGLVQPGGSLRLSCAASGFTFSSYWMSWVRQAPGKGLEWVANIKSDGSEKYYVDSVKGRFTISRDNAKNSLYLQMNSLRAEDTAVYYCARGPSYLASGAFDLWGRGTLVTVSS
VL: EIVLTQSPATLSLSPGERATLSCRASQSVSSYLAWYQQKPGQAPRLLIYDASNRATGIPARFSGSGSGTDFTLTISSLEPEDFAVYYCQQAYVVPPRTFGGGTKVEIK
notes: human IgG1
B3: C-19 (antibody, V domains shown)
VH: QLQLQESGPGLVKPSETLSLTCTVSGGSISSSSYAWGWIRQPPGKGLEWIGSIYYSGSTYYNPSLKSRVTISVDTSKNQFSLKLSSVTAADTAVYYCARVGYTRPYGMDVWGQGTTVTVSS
VL: DIQMTQSPSSVSASVGDRVTITCRASQGISSWLAWYQQKPGKAPKLLIYAASSLQSGVPSRFSGSGSGTDFTLTISSLQPEDFATYYCQQINAHPTFGGGTKVEIK
notes: human IgG1
B4: C-35 (antibody, V domains shown)
VH: QLQLQESGPGLVKPSETLSLTCTVSGGSISSSSYAWGWIRQPPGKGLEWIGNIYYSGSTYYNPSLKSRVTISVDTSKNQFSLKLSSVTAADTAVYYCARAGYRSPSGFDYWGQGTLVTVSS
VL: DIQMTQSPSSVSASVGDRVTITCRASQGISSWLAWYQQKPGKAPKLLIYAASNLQSGVPSRFSGSGSGTDFTLTISSLQPEDFATYYCQQGNAHPTFGGGTKVEIK
notes: human IgG1
B5: C-73 (antibody, V domains shown)
VH: QVQLVESGGGVVQPGRSLRLSCAASGFTFSSYGMHWVRQAPGKGLEWVAVIWYDGSNKYYADSVKGRFTISRDNSKNTLYLQMNSLRAEDTAVYYCARGTNAYGTPRDFDLWGRGTLVTVSS
VL: DIQMTQSPSSLSASVGDRVTITCRASQSISSYLNWYQQKPGKAPKLLIYAASSLQSGVPSRFSGSGSGTDFTLTISSLQPEDFATYYCQQLSDTPITFGGGTKVEIK
notes: human IgG1
B6: C-83 (antibody, V domains shown)
VH: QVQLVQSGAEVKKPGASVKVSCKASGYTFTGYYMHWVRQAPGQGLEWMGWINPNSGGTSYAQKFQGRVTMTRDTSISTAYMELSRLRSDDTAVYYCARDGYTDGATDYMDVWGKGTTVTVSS
VL: DIQLTQSPSSVSASVGDRVTITCRASQGISSWLAWYQQKPGKAPKLLIYAASSLQSGVPSRFSGSGSGTDFTLTISSLQPEDFATYYCQQAYALPPTFGGGTKVEIK
notes: human IgG1
B7: C-18 (antibody, V domains shown)
VH: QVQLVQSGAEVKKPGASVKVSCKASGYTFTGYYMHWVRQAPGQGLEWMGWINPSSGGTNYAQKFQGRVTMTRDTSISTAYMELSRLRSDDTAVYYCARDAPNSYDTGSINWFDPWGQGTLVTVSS
VL: DIQMTQSPSSVSASVGDRVTITCRASQGISSWLAWYQQKPGKAPKLLIYAASSLQSGVPSRFSGSGSGTDFTLTISSLQPEDFATYYCQQANYHPLTFGGGTKVEIK
notes: human IgG1
B8: C-42 (antibody, V domains shown)
VH: QLQLQESGPGLVKPSETLSLTCTVSGGSISSSSYYWGWIRQPPGKGLEWIGSIYYSGSTYYNPSLKSRVTISVDTSKNQFSLKLSSVTAADTAVYYCAREPIYRRGMDVWGQGTTVTVSS
VL: EIVLTQSPATLSLSPGERATLSCRASQSVSSYLAWYQQKPGQAPRLLIYDASNRATGIPARFSGSGSGTDFTLTISSLEPEDFAVYYCQQFSNYPTFGGGTKVEIK
notes: human IgG1
B9: C-66 (antibody, V domains shown)
VH: QLQLQESGPGLVKPSETLSLTCTVSGGSISSSSYYWGWIRQPPGKGLEWIGSIYYSGSTYYNPSLKSRVTISVDTSKNQFSLKLSSVTAADTAVYYCAREVGYPYGMDVWGQGTTVTVSS
VL: DIQLTQSPSSLSASVGDRVTITCQASQDISNFLNWYQQKPGKAPKLLIYDASNLETGVPSRFSGSGSGTDFTFTISSLQPEDIATYYCQQYSDLPTFGGGTKVEIK
notes: human IgG1
B10: C-36 (antibody, V domains shown)
VH: EVQLVESGGGLVQPGGSLRLSCAASGFTFSSYWMSWVRQAPGKGLEWVANIKQDGSEKYYVDSVKGRFTISRDNAKNSLYLQMNSLRAEDTAVYYCARDGQYYPAYGMDVWGQGTTVTVSS
VL: EIVMTQSPATLSVSPGERATLSCRASQSVSSNLAWYQQKPGQAPRLLIYGASTRATGIPARFSGSGSGTEFTLTISSLQSEDFAVYYCQQYFDLPTFGGGTKVEIK
notes: human IgG1

Assays:
[1] = target: T2, human CD33 (human, UniProt P20138 18-364); test: flow cytometry, human primary monocytes; design: reference not given here;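 note: binding of anti-CD33 antibodies at 10 ug/ml to human primary monocytes, 1 h on ice, detected by PE-labelled secondary antibody, flow cytometry readout as mean fluorescence intensity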
T2 construct: CD33 on human primary dendritic cells, macrophages, monocytes and T cells and on CHO cells expressing recombinant human CD33; also called Siglec-3; hCD33

[2] = target: T3, human CD33 Fc fusion protein (human, UniProt P20138 18-259); test: RBC adhesion to plate-bound CD33-Fc; antibody 0.5 ug/ml;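 note: Plate-coated CD33-Fc preincubated 1 h with antibody, then red blood cells added for 1 h at room temperature, adherent cells lysed and quantified via peroxidase activity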
T3 construct: also called hCD33-Fc; human CD33/Fc chimera (R&D Systems)

[3] = target: T3, human CD33 Fc fusion protein; test: RBC adhesion to plate-bound CD33-Fc; antibody 1.0 ug/ml;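 note: red blood cells adhering to plate-coated CD33-Fc after 1 h antibody pretreatment, then 1 h at room temperature, bound cells read as peroxidase activity after lysis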
[4] = target: T4, human monomeric His tagged CD33 protein (human, UniProt P20138 18-259); test: ForteBio BLI or MSD-SET, IgG, monomeric antigen;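 note: BLI: antibodies captured on AHQ sensors, 100 nM antigen association 5 min, dissociation 5 min, 1:1 fit. MSD-SET: antigen fixed at 50 pM, antibody titrated, quadratic fit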
T4 construct: also called hCD33-His

[5] = target: T2, human CD33; test: cell-based or functional assay
[6] = target: T2, human CD33; test: flow cytometry, human primary dendritic cells;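 note: binding of anti-CD33 antibodies (10 ug/ml, 1 h on ice) to human primary dendritic cells, detected with a PE-labelled secondary antibody, reported as flow cytometry MFI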
[7] = target: T1, mouse CD33 Fc fusion protein; test: ForteBio BLI or MSD-SET
[8] = target: T2, human CD33; test: flow cytometry, human primary macrophages;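 note: binding of CD33 antibodies at 10 µg/ml to human primary macrophages, 1 h on ice, detected with PE-labelled secondary antibody by flow cytometry, reported as MFI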
[9] = target: T2, human CD33; test: flow cytometry, human primary T cells;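 note: binding of anti-CD33 antibodies at 10 ug/ml to human primary T cells, 1 h on ice, detected with PE-labelled secondary antibody, read as flow cytometry MFI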

T2 sequence (P20138 18-364): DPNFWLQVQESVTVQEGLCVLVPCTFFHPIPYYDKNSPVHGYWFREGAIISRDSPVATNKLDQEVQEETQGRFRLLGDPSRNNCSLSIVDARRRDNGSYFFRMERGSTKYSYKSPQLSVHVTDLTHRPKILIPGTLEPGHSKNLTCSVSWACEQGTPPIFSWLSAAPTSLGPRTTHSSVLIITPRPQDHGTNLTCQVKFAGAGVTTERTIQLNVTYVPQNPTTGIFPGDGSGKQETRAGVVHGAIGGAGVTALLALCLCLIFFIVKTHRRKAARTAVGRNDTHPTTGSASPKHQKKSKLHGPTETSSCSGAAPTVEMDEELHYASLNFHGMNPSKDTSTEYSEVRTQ
T3 sequence (P20138 18-259 limits assumed): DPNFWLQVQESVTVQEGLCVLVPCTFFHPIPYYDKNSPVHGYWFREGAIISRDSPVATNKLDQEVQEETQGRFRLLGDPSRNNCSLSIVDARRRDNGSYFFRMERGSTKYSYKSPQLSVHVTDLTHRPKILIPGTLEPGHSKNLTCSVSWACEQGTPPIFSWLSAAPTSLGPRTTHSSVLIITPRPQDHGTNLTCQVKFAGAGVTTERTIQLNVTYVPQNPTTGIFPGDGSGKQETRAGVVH
T4 sequence (P20138 18-259 limits assumed): as above

Binder	Monocyte MFI [1]	Percent RBC Binding to CD33 [2] [%]	Percent RBC Binding to CD33 [3] [%]	Kd [4] [nM]	Percent CD33 Surface Expression, DC % CD33 [5] [%]	Percent CD33 Surface Expression, Macrophage % CD33 [5] [%]	Percent CD33 Surface Expression, Monocyte % CD33 [5] [%]	DC MFI [6]	binding result [7]	Macrophage MFI [8]	T cell MFI [9]
B1	84	23	7.46	32.2	47.5	68.8	53.9	938	no binding (tested: 100 nM)	652	192
B2	181	41.3	15.3	9.97	21.8	63.1	48	1740	no binding (tested: 100 nM)	838	205
B3	182	19.5	14.3	1.82	11.6	58.7	28.2	1700	no binding (tested: 100 nM)	887	470
B4	160	16.6	7.18	4.26	18.7	51.2	31.9	1320	no binding (tested: 100 nM)	920	186
B5	94	29.8	13.7	23.7	22.9	55.9	24.9	1050	no binding (tested: 100 nM)	573	210
B6	646	98.7	108	59.3	79.6	–	87.8	70	no binding (tested: 100 nM)	409	80.6
B7	189	111	119	16.1	80	–	84.8	1190	no binding (tested: 100 nM)	981	43.4
B8	74	21.2	6.65	12.7	27.8	52.2	44.9	1130	no binding (tested: 100 nM)	617	269
B9	107	44	19.3	100	77.4	–	59.9	892	no binding (tested: 100 nM)	729	772
B10	144	13.4	16.1	2.35	21.2	36.3	46.6	1160	no binding (tested: 100 nM)	853	228
